Here are results for one molecule from paper PMC6341664, “Role of the highly conserved G68 residue in the yeast phosphorelay protein Ypd1: implications for interactions between histidine phosphotransfer (HPt) and response regulator proteins” (BMC Biochemistry, 2019).

Where a chain is given by its changes, count along the chain named.

Test in all cases: other fluorescence titration; 5-IAF-labelled Ypd1-T12C (30 pmol in 1.9 mL) titrated with Sln1-R1, 10 nM to 6 uM; 23.0 °C; 20 mM Tris pH 8.0, 50 mM NaCl, 10 mM MgCl2; excitation 492 nm, emission 515 nm; quadratic fit; 'observed' Kd, three replicate titrations
Details in all cases: both partners purified

Experiment [1] has as its target T1, Ypd1-T12C-G68L, fluorescein-labelled (S. cerevisiae, UniProt Q07688 3-167, T12C | G68L, 5-iodoacetamidofluorescein (5-IAF) on the cysteine introduced at position 12).
T1 construct: Ypd1, HPt protein of Saccharomyces cerevisiae; double mutant made on pET-Ypd1-T12C; also called Ypd1-G68L
T1 sequence: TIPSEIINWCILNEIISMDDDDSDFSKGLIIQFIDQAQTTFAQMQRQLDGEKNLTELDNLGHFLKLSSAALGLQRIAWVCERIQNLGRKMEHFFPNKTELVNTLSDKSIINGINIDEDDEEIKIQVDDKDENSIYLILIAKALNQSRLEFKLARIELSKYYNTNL

The target of experiment [2] is T2, Ypd1-T12C~F (fluorescein-labelled Ypd1-T12C) (S. cerevisiae, UniProt Q07688 3-167, T12C, 5-iodoacetamidofluorescein (5-IAF) on the cysteine introduced at position 12 (70-90% of the molecules labelled)).
T2 construct: Ypd1, histidine phosphotransfer (HPt) protein of Saccharomyces cerevisiae; YPD1 gene in pET21a(+), T12C; also called WT; 5-IAF labelled Ypd1
T2 sequence: T1 sequence with L66G

Experiment [3] deals with T3, Ypd1-T12C-G68V, fluorescein-labelled (S. cerevisiae, UniProt Q07688 3-167, T12C | G68V, 5-iodoacetamidofluorescein (5-IAF) on the cysteine introduced at position 12).
T3 construct: Ypd1, HPt protein of Saccharomyces cerevisiae; double mutant made on pET-Ypd1-T12C; also called Ypd1-G68V
T3 sequence: T1 sequence with L66V

The target of experiment [4] is T4, Ypd1-T12C-G68E, fluorescein-labelled (S. cerevisiae, UniProt Q07688 3-167, T12C | G68E, 5-iodoacetamidofluorescein (5-IAF) on the cysteine introduced at position 12).
T4 construct: Ypd1, HPt protein of Saccharomyces cerevisiae; double mutant made on pET-Ypd1-T12C; also called Ypd1-G68E
T4 sequence: T1 sequence with L66E

Experiment [5] addresses T5, Ypd1-T12C-G68Q, fluorescein-labelled (S. cerevisiae, UniProt Q07688 1-167, T12C | G68Q, 5-iodoacetamidofluorescein (5-IAF) on the cysteine introduced at position 12).
T5 construct: Ypd1, HPt protein of Saccharomyces cerevisiae; double mutant made on pET-Ypd1-T12C; PDB 6M7W is the single mutant Ypd1-G68Q (from pUC-Ypd1, without T12C); also called Ypd1-G68Q
T5 sequence: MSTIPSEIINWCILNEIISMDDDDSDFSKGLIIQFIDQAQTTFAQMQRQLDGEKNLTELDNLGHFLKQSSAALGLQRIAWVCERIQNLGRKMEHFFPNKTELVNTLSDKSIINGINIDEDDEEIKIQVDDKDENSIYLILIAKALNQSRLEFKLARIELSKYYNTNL

B1: Sln1-R1 (receiver domain of Sln1) (domain or fragment, S. cerevisiae)
chain: TSVKILVVEDNHVNQEVIKRMLNLEGIENIELACDGQEAFDKVKELTSKGENYNMIFMDVQMPKVDGLLSTKMIRRDLGYTSPIVALTAFADDSNIKECLESGMNGFLSKPIKRPKLKTILTEFCAAYQGKKNNK
notes: Receiver domain (R1) of the hybrid sensor histidine kinase Sln1 of Saccharomyces cerevisiae, in the vector pFJS16; neither is said here; also called receiver domain from Sln1
Regarding B1, the Kd (in general, the equilibrium constant for the complex coming apart) in experiment [1] was found to be 1300 nM; in experiment [2], 940 nM; in experiment [3], 2900 nM; in experiment [4] it was 500 nM; in experiment [5], 600 nM.
